# In patent US20260317430 (published 2026):
# T1: mouse FGFR2b (mouse, UniProt P21803)
# T1 chain: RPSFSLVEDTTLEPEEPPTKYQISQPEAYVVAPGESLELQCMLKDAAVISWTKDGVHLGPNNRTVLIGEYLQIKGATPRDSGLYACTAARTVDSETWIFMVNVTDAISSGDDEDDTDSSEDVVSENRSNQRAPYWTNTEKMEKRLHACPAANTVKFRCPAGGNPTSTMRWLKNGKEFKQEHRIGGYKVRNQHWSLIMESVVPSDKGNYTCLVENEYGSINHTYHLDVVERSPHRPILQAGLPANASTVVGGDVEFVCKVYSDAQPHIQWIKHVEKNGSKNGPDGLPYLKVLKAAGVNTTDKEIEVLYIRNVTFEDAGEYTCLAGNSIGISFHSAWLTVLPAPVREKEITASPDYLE
# B1: 3D7 (antibody, V domains shown)
# VH: QVQLQQSGAELVKPGASVKMSCKASGYTFSFYNMHWVKRTPGRGLEWIGLIYPDNGDTSYNQKFKGKATLTADTSSSTAYMQLSSLTSEDSAVYYCARGGLDYWGQGTSLTVSS
# VL: EIVLTQSPASLAVSLGQRATISCKASQSVDYDGDSYMNWYQQKPGQPPKLLIYGISNRFSGVPDRFSGSGSGTDFTLKISTIKPEDLGMYYCLQGTHQPYTFGGGTKLEIK
# B2: 2B1 (antibody, V domains shown)
# VH: EVQLQQSGAELVKPGASVKMSCKASGYTFASYNLHWVKQTPGQGLEWIGLIYPENGDTSYNQKFKGKATLTADKSSSTAYIQLSSLTSEDSAVYFCARGGFDYWGQGTSLTVSS
# VL: DIQMIQSPASLSVSVGETVTITCRASENIYSNLAWYQQKQGKSPQLLVYNAKTLADGVPSRFSGSGSGTQYSLKINSLQPEDFGSYYCQHFWSTPYTFGGGTKLEIK
# B3: 3E7 (antibody, V domains shown)
# VH: QVQLQQSGAELVKPGASVKMSCKASGYTFTIYNIHWVRQTPGQGLEWIGLIYPDNGDTSYNQKFKAKATLTADKSSSTAYMQLSSLTSEDSAVYYCARGGFDYWGQGTTLTVSS
# VL: NIVMTQSQKFMSTSVGDRVSVTCKASQNVGTNVAWYQQKPGQSPKALIYSASYRYSGVPDRFTGSGSGTDFTLTISGVQAEDLADYYCQQHYNTPYTFGGGTKLEIK
# B4: 3A12 (antibody, V domains shown)
# VH: EVQLQQSGAELVKPGASVKMSCKASGYTFSFYNVHWVRQTPGQGLEWIGLIYPDNGDTSYNQKFKAKATLTADKSSSAAYMQLSSLTSEDSAVYYCARGGFDYWGQGTSLTVSS
# VL: DIVMTQSHKFMSTSVGDRVNITCKASQDVSTAVAWYQQKPGQSPKLLIYSASYRYSGVPDRFTGSGSGTDFTFTISSVQAEDLAVYYCQQHYSTPYTFGGGTKLEMK
# B5: 3B4 (antibody, V domains shown)
# VH: EVQLQQSGADLVKPGASVKMSCKASGYTFSYYNMHWVRRTPGQGLEWIGLIYPDNGDTSYNQKFKGKATLTADTSSSTAYMQLSSLTSEDSAVYYCARGGLDYWGQGTTLTVSS
# VL: DIQMIQSPASMSASVGETVTITCGASENIYGALNWYQRKQGKSPQLLIYGATNLADGMSSRFSGSGSGRQYSLKISSLHPDDVATYYCQNVLSTPYTFGGGTKLEMK
# B6: 1D7 (antibody, V domains shown)
# VH: QIQLQQSGAELVKPGASVKMSCKASGYTFRYYNMHWVKRTPGQGLEWIGLIYPDNGDTSYNQKFKGKATLTADTSSSTAYMQLSSLTSEDSAVYYCARGGLDYWGQGTSLTVSS
# VL: DIQMTQSPSSMSASLGDRITITCQATQDIVKNLNWYQQKPGKPPSFLIYYATELAEGVPSRFSGSGSGSDYSLTISNLESEDFADYYCLQFYEFPLTFGAGTKLELK
# B7: 3A8 (antibody, V domains shown)
# VH: QVQLQQSGAELVKPGASVKMSCKASGYTFTIYNIHWVRQTPGQGLEWIGLIYPDNGDTSYNQKFKAKATLTADKSSSTAYMQLSSLTSEDSAVYYCARGGFDYWGQGTSLTVSS
# VL: DIVMTQSQKFMSTSVGDRVSVTCKASQNVGTNVAWYQQKPGQSPKALIYSASYRYSGVPDRFTGSGSGTDFTLTISNVQAEDLADYFCQQHYSTPYTFGGGTKLEMK
# B8: 3F11 (antibody, V domains shown)
# VH: QVQLQQSGAELVKPGASVKMSCKASGYTFAPYNIHWVRQTPGQGLEWIGLIYPDNGDTSYNQKFKAKATLTADKSSSTAYMQLSSLTSEDSAVYYCARGGFDYWGQGTSLTVSS
# VL: DIVMTQSQKFMSTSVGDRVSVTCKASQNVGTNVAWYQQKPGQSPKALIYSASYRYSGVPDRFTGSGSGTDFTLTISNVQSEDLAEYFCQQHYSTPFTFGSGTKLEIK
# B9: 3A3 (antibody, V domains shown)
# VH: QVQLQQSGAELVKPGASVKMSCKASGYTFTTYNIHWVRQTPGQGLEWIGLIYPDNGDTSYNQKFKAKATLTADKSSSTAYMHLSSLTSEDSAVYYCARGGFDYWGQGTTLTVSS
# VL: DIVMTQSHKFMSTSVGDRVSITCKASQDVNTDVSWYQQKPGQSPKLLIYSASYRYTGVPTRFTGSGSGTDFTFTISGVQAEDLADYYCQQHYNTPYTFGGGTRLEIK
# B10: 3H6 (antibody, V domains shown)
# VH: QVQLQQSGAELVKPGASVKMSCKASGYTFSFYNIHWVRQTPGQGLEWIGLIYPDNGDTSYNQKFKAKATLTADKSSSTAYMQLSSLTSEDSAVYYCARGGFDYWGQGTTLTVSS
# VL: DIQMTQSPASLSASVGETVTITCRASENIYSYLAWYQQKQGKSPQLLVYNAKTLAEGVPSRFSGSGSGTQFSLKINSLQPEDFGSYYCQHHYGTPYTFGGGTKLEMK
# B11: 3D6 (antibody, V domains shown)
# VH: QVQLQQSGAELVKPGASVKMSCKASGYTFRYYNMHWVKRTPGQGLEWIGLIYPDNGDTSYNQKFKGKATLTADTSSSTAYMQLSSLTSEDSAVYYCARGGLDYWGQGTSLTVSS
# VL: DIQMTQSPASLSVSVGETVTITCRASENIYSNLAWYQQKQGKSPQLLVYNAKTLADGVPSRFSGSGSGTQYSLKINSLQPEDFGSYYCQHFWSTPFTFGSGTKLELK
# B12: 3F10 (antibody, V domains shown)
# VH: EVQLQQSGAELVKPGASVKMSCKASGYTFSFYNIHWVRQTPGQGLEWIGLIYPDNGDTSYNQKFKAKATLTADKSSSTAYMQLSSLTSEDSAVYYCARGGFDYWGQGTTLTVSS
# VL: DVLMTQSPASLSASVGETVTITCGASENIYGALNWYQRKQGKSPQLLIYGATNLADGMSSRFSGSGSGRQYSLKISSLHPDDVATYYCQNVLSTPYTFGGGTKLEIK
# B13: 3F5 (antibody, V domains shown)
# VH: EIQLQQSGAELVKPGASVKMSCKASGYTFRYYNMHWVKRTPGQGLEWIGLIYPDNGDTSYNQKFKGKATLTADTSSSTAYMQLSSLTSEDSAVYYCARGGLDYWGQGTTLTVSS
# VL: DIVLTQSPASLSASVGETVTITCGASENIYGALNWYQRKQGKSPQLLIYGATNLADGMSSRFSGSGSGRQYSLKISSLHPDDVATYYCQNVLSTPYTFGGGTKLEIK
# B14: 1B8 (antibody, V domains shown)
# VH: QIQLQQSGAELVKPGASVKMSCKASGYTFASYNLHWVKQTPGQGLEWIGLIYPENGDTSYNQKFKGKATLTADTSSTTAYIQLSSLTSEDSAVYFCARGGFDYWGQGTSLTVSS
# VL: DIKMTQSPASLSASVGETVTITCGASENIYGALNWYQRKQGKSPQLLIYGATNLADGMSSRFSGSGSGRQYSLKISSLHPDDVATYYCQNVLSTPYTFGGGTKLEIK
# B15: 3E3 (antibody, V domains shown)
# VH: QVQLQQPGAVLVKPGASVRMSCKASGYTFPYYNVHWVKRTPGQGLEWIGLIYPDNGDTSYNQKFTGKATLTADTSSSTAYMQLSSLTSEDSAVYYCARGGLDYWGQGTTLTVSA
# VL: DVQITQSPASLSASVGETVTITCGASENIYGALNWYQRKQGKSPQLLIYGATNLADGMSSRFSGSGSGRQYSLKISSLHPDDVATYYCQNVLSTPYTFGGGTKLEIK
# B16: 3E1 (antibody, V domains shown)
# VH: QVQLQQPGAEVVKPGASVKMSCKASGYTFTDYYIHWVKQTPGQGLEWIGAIYPDNGDTSYNQKFKVKATLTADKSSSTAYMQLSSLTSEDSAVYYCARAFTYWGQGTLVTVSA
# VL: DILITQSPASLSASVGETVTITCGASENIYGALNWYQRKQGKSPQLLIYGATNLADGMSSRFSGSGSGRQYSLKISSLHPDDVATYYCQNVLSTPYTFGGGTKLEIK
# B17: 3C9 (antibody, V domains shown)
# VH: EIQLQQSGAELVKPGASVKMSCKASGYIFRYYNMHWVKRTPGQGLEWIGLIYPDNGDTSYNQKFKGKATLTADTSSSTAYMQLSSLTSEDSAVYYCARGGLDYWGQGTTLTVSS
# VL: DIQMIQSPASLSASVGETVTITCGASENIYGALNWYQRKQGKSPQLLIYGATNLADGMSSRFSGSGSGRQYSLKISSLHPDDVATYYCQNVLSTPYTFGGGTKLEIK
# B18: 3C7 (antibody, V domains shown)
# VH: EIQLQQSGAELVKPGASVKMSCKASGYIFRNYYIHWVKRTPGQGLEWIGAIYPDNGDTSYNQRFKVKATLTADTSSSTAYMQLSSLTSEDSAVYYCARAFTYWGQGTTLTVSS
# VL: DIQMIQSPASLSASVGETVTITCGASENIYGALNWYQRKQGKSPQLLIYGATNLADGMSSRFSGSGSGRQYSLKISSLHPDDVATYYCQNVLSTPYTFGGGTKLEIK
# Columns and labels:
# mouse FGFR2b = target: T1, mouse FGFR2b; assay: BLI
# [1] = target: T2, human FGFR2b extracellular domain (human, UniProt P21802); assay: BLI
# T2 sequence (P21802 22-377): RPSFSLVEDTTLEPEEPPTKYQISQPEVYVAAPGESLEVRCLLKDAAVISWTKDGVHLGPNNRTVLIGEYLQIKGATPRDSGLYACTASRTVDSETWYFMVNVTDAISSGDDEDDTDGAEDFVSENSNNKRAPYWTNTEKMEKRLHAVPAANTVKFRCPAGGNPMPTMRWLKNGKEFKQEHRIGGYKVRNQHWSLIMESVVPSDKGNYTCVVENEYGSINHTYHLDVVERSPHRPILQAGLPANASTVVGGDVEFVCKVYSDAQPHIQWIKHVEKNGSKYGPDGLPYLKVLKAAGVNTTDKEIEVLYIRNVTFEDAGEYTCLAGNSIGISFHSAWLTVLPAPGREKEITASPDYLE
# [2] = target: human FGFR2b on KATO III cells (human, UniProt P21802); assay: FACS
# Sequence of human FGFR2b on KATO III cells (P21802 22-377): as above
# [3] = target: T2, human FGFR2b extracellular domain; assay: ELISA
binder,measurement,setting,value
B1,Kd,mouse FGFR2b,81.7 nM
same,Kd,[1],8.58 nM
same,EC50,[2],0.259 µg/mL
same,EC50,[3],0.0369 µg/mL
B2,Kd,mouse FGFR2b,23 nM
same,Kd,[1],6.67 nM
same,EC50,[2],0.195 µg/mL
same,EC50,[3],0.0276 µg/mL
B3,Kd,mouse FGFR2b,40.9 nM
same,Kd,[1],4.35 nM
same,EC50,[2],0.298 µg/mL
same,EC50,[3],0.0154 µg/mL
B4,Kd,mouse FGFR2b,10.7 nM
same,Kd,[1],2.82 nM
same,EC50,[2],0.292 µg/mL
same,EC50,[3],0.0128 µg/mL
B5,Kd,mouse FGFR2b,27.3 nM
same,Kd,[1],6.28 nM
same,EC50,[2],0.168 µg/mL
same,EC50,[3],0.0166 µg/mL
B6,Kd,mouse FGFR2b,27.6 nM
same,Kd,[1],4.51 nM
same,EC50,[2],0.167 µg/mL
same,EC50,[3],0.0154 µg/mL
B7,Kd,mouse FGFR2b,7.17 nM
same,Kd,[1],3.48 nM
same,EC50,[2],0.199 µg/mL
same,EC50,[3],0.0278 µg/mL
B8,Kd,mouse FGFR2b,26 nM
same,Kd,[1],6.13 nM
same,EC50,[2],0.164 µg/mL
same,EC50,[3],0.0156 µg/mL
B9,Kd,mouse FGFR2b,39.6 nM
same,Kd,[1],3.71 nM
same,EC50,[2],0.236 µg/mL
same,EC50,[3],0.0216 µg/mL
B10,Kd,mouse FGFR2b,43.7 nM
same,Kd,[1],8.41 nM
same,EC50,[2],0.226 µg/mL
same,EC50,[3],0.0128 µg/mL
B11,Kd,mouse FGFR2b,21.7 nM
same,Kd,[1],15 nM
same,EC50,[2],0.136 µg/mL
same,EC50,[3],0.0369 µg/mL
B12,Kd,mouse FGFR2b,52.5 nM
same,Kd,[1],7.62 nM
same,EC50,[2],0.159 µg/mL
same,EC50,[3],0.00818 µg/mL
B13,Kd,mouse FGFR2b,36.1 nM
same,Kd,[1],5.1 nM
same,EC50,[2],0.105 µg/mL
same,EC50,[3],0.0159 µg/mL
B14,Kd,mouse FGFR2b,74.9 nM
same,Kd,[1],13.3 nM
same,EC50,[2],0.133 µg/mL
same,EC50,[3],0.0273 µg/mL
B15,Kd,mouse FGFR2b,52.7 nM
same,Kd,[1],8.18 nM
same,EC50,[2],0.376 µg/mL
same,EC50,[3],0.0273 µg/mL
B16,Kd,mouse FGFR2b,21.8 nM
same,Kd,[1],4.5 nM
same,EC50,[2],0.132 µg/mL
same,EC50,[3],0.0156 µg/mL
B17,Kd,mouse FGFR2b,9.95 nM
same,Kd,[1],2.7 nM
same,EC50,[2],0.253 µg/mL
same,EC50,[3],0.0147 µg/mL
B18,Kd,mouse FGFR2b,8.71 nM
same,Kd,[1],3.99 nM
same,EC50,[2],0.2 µg/mL
same,EC50,[3],0.0166 µg/mL
